# Test results taken from US20130052132A1, “Method for Producing Radioactively Labeled Polypeptide” (priority 2011, published 2013).
# * marks the point of attachment. Benzoyl(3-I) = O=C(c1cccc(I)c1)*
# T1: GLP-1R of the pancreatic β-cells (Mus musculus, UniProt O35659)
# T1 construct: the pancreas was dissected out of the mouse; from tissue; host or cells: pancreas sections of MIP-GFP mice after intravenous dosing
# T1 sequence (O35659 22-463): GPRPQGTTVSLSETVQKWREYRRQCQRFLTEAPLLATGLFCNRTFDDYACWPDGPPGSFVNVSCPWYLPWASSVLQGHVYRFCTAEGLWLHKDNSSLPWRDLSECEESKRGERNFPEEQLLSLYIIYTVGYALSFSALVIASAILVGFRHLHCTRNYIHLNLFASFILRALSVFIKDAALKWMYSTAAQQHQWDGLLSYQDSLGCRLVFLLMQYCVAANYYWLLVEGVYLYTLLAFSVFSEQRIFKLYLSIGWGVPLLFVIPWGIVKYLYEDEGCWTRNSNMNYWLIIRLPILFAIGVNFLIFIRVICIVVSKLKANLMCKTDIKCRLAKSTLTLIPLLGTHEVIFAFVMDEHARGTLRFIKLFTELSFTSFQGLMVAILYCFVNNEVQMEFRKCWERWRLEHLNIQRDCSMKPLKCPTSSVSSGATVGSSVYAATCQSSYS
# T2: GLP-1R (glucagon-like peptide-1 receptor) of mouse pancreatic islet cells (mouse, UniProt O35659 22-463)
# T2 construct: whole, on cells; also called GLP-1R of pancreatic beta-cells
# T2 sequence: T1 sequence (O35659 22-463)
# B1: polypeptide represented by the formula (11) (peptide)
# peptide: Ac-DLSK(Benzoyl(3-I))QMEEEAVRLFIEWLRNGGPSSGAPPPS-NH2
# SMILES: CC[C@H](C)[C@H](NC(=O)[C@H](Cc1ccccc1)NC(=O)[C@H](CC(C)C)NC(=O)[C@H](CCCNC(=N)N)NC(=O)[C@@H](NC(=O)[C@H](C)NC(=O)[C@H](CCC(=O)O)NC(=O)[C@H](CCC(=O)O)NC(=O)[C@H](CCC(=O)O)NC(=O)[C@H](CCSC)NC(=O)[C@H](CCC(N)=O)NC(=O)[C@H](CCCCNC(=O)c1cccc(I)c1)NC(=O)[C@H](CO)NC(=O)[C@H](CC(C)C)NC(=O)[C@H](CC(=O)O)NC(C)=O)C(C)C)C(=O)N[C@@H](CCC(=O)O)C(=O)N[C@@H](Cc1c[nH]c2ccccc12)C(=O)N[C@@H](CC(C)C)C(=O)N[C@@H](CCCNC(=N)N)C(=O)N[C@@H](CC(N)=O)C(=O)NCC(=O)NCC(=O)N1CCC[C@H]1C(=O)N[C@@H](CO)C(=O)N[C@@H](CO)C(=O)NCC(=O)N[C@@H](C)C(=O)N1CCC[C@H]1C(=O)N1CCC[C@H]1C(=O)N1CCC[C@H]1C(=O)N[C@@H](CO)C(N)=O
# notes: Non-radioactive exendin(9-39) derivative with Arg in place of Lys at position 19; Formula (11) itself is a drawing; also called cold probe
# Key:
# [1] = design: species or system ddY mice; details: mouse
# Description: After 5 minutes, 15 minutes, 30 minutes, 60 minutes, and 120 minutes from the administration, organs were dissected out of the mice (n=5). The weight and radioactivity of each organ were determined, and an accumulation amount (% dose/g) of the polypeptide of Example 1 was calculated from the radioactivity per unit weight. FIG. 1 is a graph showing, by way of example, how the accumulation of the polypeptide of Example 1 in each organ changed over time. Table 2 provides the ratio of pancreas/liver (accumulation amount in pancreas/accumulation amount in liver), the ratio of pancreas/kidney (accumulation amount in pancreas/accumulation amount in kidney), and the ratio of pancreas/blood (accumulation amount in pancreas/accumulation amount in blood) based on the accumulation amount of the polypeptide of Example 1 in each organ. The polypeptide of Example 2 (0.51 μCi) was administered to unanesthetized 6-week-old ddY mice (male, weight: 30 g) by intravenous injection (through the tail vein). After 5 minutes, 15 minutes, 30 minutes, 60 minutes, and 120 minutes from the administration, organs were dissected out of the mice (n=5). The weight and radioactivity of each organ were determined, and an accumulation amount (% dose/g) of the polypeptide of Example 2 was calculated from the radioactivity per unit weight. FIG. 3 is a graph showing, by way of example, how the accumulation of the polypeptide of Example 2 in each organ changed over time. Table 4 provides the ratio of pancreas/liver, the ratio of pancreas/kidney, and the ratio of pancreas/blood based on the accumulation amount of the polypeptide of Example 2 in each organ. A biodistribution experiment was performed by following the same procedure as in Example 1 except that the polypeptide of Example 4 (0.61 μCi) was used in place of the polypeptide of Example 1. FIG. 6 is a graph showing, by way of example, how the accumulation of the polypeptide of Example 4 in each organ changed over time. […]
# [2] = target: T1, GLP-1R of the pancreatic β-cells; assay: Two-dimensional imaging analysis of pancreas sections (fluorescence and autoradiography); format: in vivo, MIP-GFP mouse; details: MIP-GFP mice
# Description: The polypeptide of Example 1 (5 μCi/100 μl) was administered to an unanesthetized MIP-GFP mouse (male, weight: 20 g) by intravenous injection, and after 30 minutes and 60 minutes from the administration, the pancreas was dissected out of the mouse (n=1). Sections were cut out of the dissected pancreas, and each section was placed on a slide glass, covered with a cover glass. The fluorescence and radioactivity (autoradiography) of each section were determined using an image analyzer (trade name: Typhoon 9410, manufactured by GE Health Care Inc.) (exposure time: 18 hours). The exemplary results are shown in lanes 1, 4 and 5 of FIG. 2. […] After 30 minutes from the preliminary administration, the polypeptide of Example 1 (5 μCi/100 μl) was administered to the mice by intravenous injection, and after 30 minutes and 60 minutes from the administration of the polypeptide, the pancreases were dissected out of the mice (n=2). Sections were cut out of the dissected pancreases, and the fluorescence and radioactivity of each section were determined in the same manner as above. […] FIG. 4 illustrates exemplary results of the imaging analysis of pancreas sections of MIP-GFP mice to which the polypeptide of Example 2 was administered. The images on the upper row show a fluorescence signal and those on the lower row show a radioactivity signal of the polypeptide represented by the formula (20). […]
# [3] = target: T2, GLP-1R (glucagon-like peptide-1 …); assay: displacement of [125I]Bolton-Hunter labeled exendin(9-39) from mouse pancreatic islet cells, filter separation, gamma counter
# Description: First, pancreatic islets isolated from a mouse was recovered in a 50 ml-tube and after subjecting them to centrifugation (2000 rpm, 2 minutes), they were washed once with 20 ml of cold PBS. To the washed pancreatic islets, 15 ml of trypsin-EDTA (which was prepared by adding 12 ml of PBS-containing 0.53 mM EDTA (pH 7.4 (NaOH)) to 3 ml of trypsine-EDTA (0.05%/0.53 mM)) was added. This was incubated at 37° C. for one minute while shaken, and then immediately placed on ice. Subsequently, after it was subjected to vigorous pipetting 20 times with a 10 ml pipette dropper without being foamed, cold PBS was added so that the final amount would be 30 ml. After centrifugation (3000 rpm, 2 minutes), it was washed twice with 30 ml of cold PBS. The supernatant was removed, whereby a pancreatic islet cell sample was obtained. The obtained pancreatic islet cell sample was reserved at −80° C.
# The pancreatic islet cell sample was suspended in a buffer (20 mM HEPES (pH 7.4), 1 mM MgCl₂, 1 mg/ml bacitracin, 1 mg/ml BSA) so as to make 100 μL/tube. […] Next, after B/F separation by aspirating with use of an aspirator to which a pre-moistened glass fiber filter (Whatman GF/C filter) was attached, the filter was washed three times with 5 ml of ice-cold PBS. The filter was set into the tube, and the radioactivity measurement was carried out with a gamma counter.
Molecule,deiodization metabolism in vivo [1],accumulation in the pancreas ([1]; in vivo),ratio of pancreas/kidney in the accumulation amount ([1]; in vivo),"localization of the radioactivity signal in pancreas sections ([2]; 30 and 60 minutes after intravenous injection, compared with GFP signal)",radioactivity signal in pancreas sections after blocking the receptors ([2]; preliminary administration of cold probe non-labeled exendin(9-39) 50 μg 30 minutes before),IC50 [3] [nM]
Example 1 (DLSKQMEEEAVRLFIEWLRNGGPSSGAPPPS; A polypeptide produced in Production Example 1),not subjected to deiodization metabolism in vivo,exceeding 15 % dose/g,≥ 1,substantially consistent with that of the GFP signal,hardly detected,
B1,,,,,,32.1
